Experimental data from article PMC3722283.

Target: concanavalin A
Experiment: SPR

Substance | Kd [µM]
Man3GlcNAc2-RNase (glycoprotein 3) (from UniProt P61823 27-150) (natural protein) | 2.5
bovine ribonuclease B (native, carrying Man5-9 N-glycans) (from UniProt P61823 27-150) (natural protein) | 1.2
monofluoro-Man3GlcNAc2 glycoform of RNase (glycoprotein 2) (from UniProt P61823 27-150) (natural protein) | 2.4
